Values of other authors in article PMC5689459.

Molecular target: delta-opioid receptor (Homo sapiens) (UniProt P41143)
Assay: radioligand

Morphiceptin, sequence (P02666 whole entry, looked up): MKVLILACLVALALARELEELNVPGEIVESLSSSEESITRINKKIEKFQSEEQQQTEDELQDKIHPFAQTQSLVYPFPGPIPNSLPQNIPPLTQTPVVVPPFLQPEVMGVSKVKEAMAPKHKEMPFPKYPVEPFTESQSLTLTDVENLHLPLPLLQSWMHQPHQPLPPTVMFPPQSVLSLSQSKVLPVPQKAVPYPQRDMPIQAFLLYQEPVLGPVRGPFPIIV

Question: Which Ki does the source give for Morphiceptin (from UniProt P02666) here?
Answer: > 10 µM
